Results on 39 molecules are retold here after patent publication US20220259593A1, “CONTROL OF MAMMALIAN GENE DOSAGE USING CRISPR” (The Regents of the University of California, priority 2019, published 2022).

The series deals with K562 CRISPRi cells. Kind of series: Constant region variant library pooled growth screen, K562. Type of series: cell-based, human. To be noted: sgRNA constant region variants. In outline:
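Cells were selected with puromycin for 2 days and then kept in RPMI-1640 spinner cultures, with duplicates handled separately. Targeting sequences comprised 3 sgRNAs per essential gene for 10 genes plus six non-targeting controls. Activities were normalized against pairing with the unmodified scaffold.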

The mark [1] stands for this setting: activity relative to the unmodified constant region cr995.
Where [2] appears, read: activity relative to the original, un-modified constant region cr995.

Residue numbers refer to the chain shown, from its start.

B1: cr228 (nucleic acid)
guide: GTTTAAGAGCTAAGCTGGAAACAGCATAGCAAGTTTAAATAAGGGTAGTCCGTTATCAACTTGAAAAAGTGGCACCGAGTCGGTGCT
modifications: listed as DNA, chemistry not fully specified
Molecule B1 registered a Mean relative activity under setting [1] of 0.1424.

B2: cr062 (nucleic acid)
guide: B1 guide with T4C, A8T, G45C
modifications: listed as DNA, chemistry not fully specified
In the case of B2, the Mean relative activity under setting [2] turned out to be 0.1003.

B3: cr401 (nucleic acid)
guide: B1 guide with G45C, A74T, G82T, T84C
modifications: listed as DNA, chemistry not fully specified
B3: the Mean relative activity under setting [2] is 0.09781.

B4: cr325 (nucleic acid)
guide: B1 guide with G33C, G45C, A59G, T70C
modifications: listed as DNA, chemistry not fully specified
In the case of B4, the Mean relative activity under setting [2] was determined as 0.09143.

B5: cr821 (nucleic acid)
guide: B1 guide with A26G, G45C
modifications: listed as DNA, chemistry not fully specified
B5 had a Mean relative activity under setting [2] of 1.038.

B6: cr762 (nucleic acid)
guide: B1 guide with A32C, G45C, G52T
modifications: listed as DNA, chemistry not fully specified
Molecule B6 displayed a Mean relative activity under setting [2] of 0.0885.

B7: cr290 (nucleic acid)
guide: B1 guide with G45C, G52A, G71T
modifications: listed as DNA, chemistry not fully specified
Take B7: the Mean relative activity under setting [2] is 0.1027.

B8: cr087 (nucleic acid)
guide: B1 guide with G1C, A5G, G45C
modifications: listed as DNA, chemistry not fully specified
Under setting [2], B8 gave a Mean relative activity of 0.1041.

B9: cr084 (nucleic acid)
guide: B1 guide with T3C, A5G, G45C
modifications: listed as DNA, chemistry not fully specified
Take B9: the Mean relative activity under setting [2] is 0.09372.

B10: cr411 (nucleic acid)
guide: B1 guide with G44A, G45C
modifications: listed as DNA, chemistry not fully specified
In the case of B10, the Mean relative activity under setting [2] is on record as 0.1086.

B11: cr580 (nucleic acid)
guide: B1 guide with A38G, G45C
modifications: listed as DNA, chemistry not fully specified
Under setting [2], B11 displayed a Mean relative activity of 0.1076.

B12: cr089 (nucleic acid)
guide: B1 guide with A6T, G7A, G45C
modifications: listed as DNA, chemistry not fully specified
Under setting [1], B12 displayed a Mean relative activity of 0.1183.

B13: cr714 (nucleic acid)
guide: B1 guide with T34C, G45C, C60A, G69T
modifications: listed as DNA, chemistry not fully specified
Consider B13, for which the Mean relative activity under setting [2] was 0.09294.

B14: cr739 (nucleic acid)
guide: B1 guide with G33C, G45C, T61G, A68C
modifications: listed as DNA, chemistry not fully specified
B14 came in with a Mean relative activity under setting [2] of 0.08764.

B15: cr791 (nucleic acid)
guide: B1 guide with G43A, G45C, C51T, G77C, C81G
modifications: listed as DNA, chemistry not fully specified
Turning to B15, the Mean relative activity under setting [2] was 0.07648.

B16: cr390 (nucleic acid)
guide: B1 guide with G33A, G45C, G71A
modifications: listed as DNA, chemistry not fully specified
The molecule B16 had a Mean relative activity under setting [1] of 0.1354.

B17: cr288 (nucleic acid)
guide: B1 guide with G33C, G45C, T62G, A67C
modifications: listed as DNA, chemistry not fully specified
For B17, the Mean relative activity under setting [2] amounted to 0.1016.

B18: cr461 (nucleic acid)
guide: B1 guide with G45C, G52T, T54A, A66G
modifications: listed as DNA, chemistry not fully specified
On to B18, for which, under setting [1], the Mean relative activity was 0.1147.

B19: cr490 (nucleic acid)
guide: B1 guide with G45C, C60A, G69T, A74G, G77C, C81G, T84C
modifications: listed as DNA, chemistry not fully specified
Turning to B19, the Mean relative activity under setting [1] came out at 0.1317.

B20: cr881 (nucleic acid)
guide: B1 guide with G45C, G52T, T56A
modifications: listed as DNA, chemistry not fully specified
For the molecule B20, the Mean relative activity under setting [1] was 0.1367.

B21: cr796 (nucleic acid)
guide: B1 guide with T36A, G45C
modifications: listed as DNA, chemistry not fully specified
With B21, under setting [2], the Mean relative activity was 0.096.

B22: cr259 (nucleic acid)
guide: B1 guide with G45C, C57G, A58T, G63C
modifications: listed as DNA, chemistry not fully specified
In turn, B22 came in with a Mean relative activity under setting [1] of 0.1243.

B23: cr091 (nucleic acid)
guide: B1 guide with A5T, G7C, G45C
modifications: listed as DNA, chemistry not fully specified
With B23, under setting [1], the Mean relative activity worked out at 0.1366.

B24: cr066 (nucleic acid)
guide: B1 guide with G1A, T4C, G45C
modifications: listed as DNA, chemistry not fully specified
As for B24, the Mean relative activity under setting [2] was found to be 0.09115.

B25: cr808 (nucleic acid)
guide: B1 guide with G43A, G45C, C51T, C60A, G69T, G72T, C86A
modifications: listed as DNA, chemistry not fully specified
B25 displayed a Mean relative activity under setting [1] of 0.1417.

B26: cr112 (nucleic acid)
guide: B1 guide with G43A, G45T, G48A, C51T, C60T, G69A
modifications: listed as DNA, chemistry not fully specified
The molecule B26 had a Mean relative activity under setting [2] of 0.0933.

B27: cr872 (nucleic acid)
guide: B1 guide with G45C, G48T
modifications: listed as DNA, chemistry not fully specified
On to B27, for which the Mean relative activity under setting [1] worked out at 0.1317.

B28: cr513 (nucleic acid)
guide: B1 guide with G33C, G45C, A59C, T70G
modifications: listed as DNA, chemistry not fully specified
In turn, B28 yielded a Mean relative activity under setting [2] of 0.0947.

B29: cr059 (nucleic acid)
guide: B1 guide with T2G, G7A, G45C
modifications: listed as DNA, chemistry not fully specified
B29 had a Mean relative activity under setting [1] of 0.1106.

B30: cr727 (nucleic acid)
guide: B1 guide with G45C, G72T, A74G, T84C, C86A
modifications: listed as DNA, chemistry not fully specified
Under setting [2], B30 registered a Mean relative activity of 1.037.

B31: cr798 (nucleic acid)
guide: B1 guide with G45A, G48T, C75T, G77C, C81G, G83A
modifications: listed as DNA, chemistry not fully specified
Under setting [1], B31 yielded a Mean relative activity of 0.1361.

B32: cr395 (nucleic acid)
guide: B1 guide with A42T, G45C, G71A, G79A
modifications: listed as DNA, chemistry not fully specified
As to B32, under setting [1], the Mean relative activity turned out to be 0.1397.

B33: cr274 (nucleic acid)
guide: B1 guide with G33C, G45C, T61C, A68G
modifications: listed as DNA, chemistry not fully specified
Under setting [1], B33 returned a Mean relative activity of 0.1303.

B34: cr453 (nucleic acid)
guide: B1 guide with A39C, G45C
modifications: listed as DNA, chemistry not fully specified
For the molecule B34, the Mean relative activity under setting [2] turned out to be 0.09528.

B35: cr560 (nucleic acid)
guide: B1 guide with T34C, G45C, C76T, G82A
modifications: listed as DNA, chemistry not fully specified
B35 showed a Mean relative activity under setting [1] of 0.1347.

B36: cr761 (nucleic acid)
guide: B1 guide with A31T, G45C, A55G, A58T
modifications: listed as DNA, chemistry not fully specified
Take B36: the Mean relative activity under setting [1] was found to be 0.1369.

B37: cr691 (nucleic acid)
guide: B1 guide with G45C, C73G, A74C, T84G, G85C
modifications: listed as DNA, chemistry not fully specified
B37: the Mean relative activity under setting [2] turned out to be 1.038.

B38: cr538 (nucleic acid)
guide: B1 guide with T34C, G44A, G45C, C50T
modifications: listed as DNA, chemistry not fully specified
B38 displayed a Mean relative activity under setting [2] of 0.1104.

B39: cr257 (nucleic acid)
guide: B1 guide with A41C, G45C, G71T
modifications: listed as DNA, chemistry not fully specified
B39 registered a Mean relative activity under setting [1] of 0.1109.
